Key:
Assay in all cases: pull-down
ZCCHC3 MF R168S (human) = system: ZCCHC3 MF R168S (human)
[1] = target: T1, ZCCHC3 MF R168/247S R168S;R247S (human) (UniProt Q9NUD5)
T1 sequence: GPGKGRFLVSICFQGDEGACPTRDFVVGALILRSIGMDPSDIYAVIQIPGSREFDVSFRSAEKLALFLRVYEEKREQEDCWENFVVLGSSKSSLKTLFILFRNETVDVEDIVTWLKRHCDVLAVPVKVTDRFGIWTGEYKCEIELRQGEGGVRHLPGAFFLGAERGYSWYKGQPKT

ZCCHC3 MF R247S (human) = system: ZCCHC3 MF R247S (human)

For HIV-1 LTR (R-U5) RNA, the binding signal (ZCCHC3 MF R168S (human)) was 50 % of WT MF, the binding signal [1] was 15 % of WT MF and the binding signal (ZCCHC3 MF R247S (human)) was 50 % of WT MF.

From article doi:10.1101/2023.06.14.544911
